The values that follow are results of earlier work, collected in patent publication US20180318303A1, “METHODS FOR TREATING MYELOPROLIFERATIVE DISORDERS” (Promedior, Inc., priority 2015, published 2018).

The conditions of the series: in vivo.

For the substance “SAP: naturally occurring serum protein in mammals composed of five identical subunits, non-covalently associated in a disk-like complex”, the physiological half-life entry was “twenty-four”.
